Like-named read-outs stand apart in the source and are kept apart here.
B2: RnfD subunit of the Rnf complex from Acetobacterium woodii (natural protein)
chain: MNELNLTVSSSPHIRAKHSTASIMQNVIIALLPALAVAGYVFGLWALALVAICVISSVATEAVIQKLLKKPITVNDWSAVVTGVLLAFNLPINAPWWIGVVGSVFAIAIVKQCFGGLGQNFINPALAARAFLLASWPGHMTSTAYIPLTDTVTTATPLALLKAGETGSMPSTLDLFTGLNGVYGCIGEISALALLIGGLYLIYKGIISWRIPTIYLLTIAIFALLVGQDPIVHMVSGGVMLGAFFMATDYASSPVTAKGQIIYAIGCGLITMIIRLYGGYPEGCSYSILLMNVATPLIERFTKERIYGVTKIKKEAKA
modifications: FMN covalently linked to T156
notes: RnfD, integral membrane subunit of the Rnf complex with ten transmembrane helices (riboflavin and covalent FMN), Acetobacterium woodii; rnf genes amplified from genomic DNA
B3: RnfG subunit of the Rnf complex from Acetobacterium woodii (natural protein)
chain: METKEKVQIDWKVVFKLGLILFVISAVAACALALTNYVTAGTIEEMNVQTNTVARQEVLPKAADFEAVPAKDVEKIASEIGMEKPEELLEVYIGKSNGEVVGYTVKTGPTSGYAGEVQVLTGISADGVITGITIIKSNETPGLGAKASGVWNDQFTGKSAKEELVVVKGTTKEGSNEIQAITGSTITSKAVTSGVNMSIQVYQNLSK
modifications: FMN covalently linked to T185
notes: RnfG, membrane-anchored periplasmic flavoprotein subunit of the Rnf complex, Acetobacterium woodii; rnf genes amplified from genomic DNA; The complex was captured on Ni-NTA by this tag; no cleavage step is described; not shown: His-Tag, C-terminal, kept
B4: RnfE subunit of the Rnf complex from Acetobacterium woodii (natural protein)
chain: MNFMKNLTRGIIRENPTFVLVLGMCPTLAVTTSAINGMGMGLATMLVLIGSNVAISALRKVIPDNIRIPAFVVVIASFVTIVGMLMKAYVPALDAALGIFIPLIVVNCIILARAEAFAFSNGIADSFADAVGMGLGFTLALTILGSIREILGAGSIFGFSLFGAAYEPVLLMILPPGAFLTLGLLIGLINWKTKKA
notes: RnfE, integral membrane subunit of the Rnf complex, homologous to RnfA (29% identity), Acetobacterium woodii; rnf genes amplified from genomic DNA
B5: RnfB subunit of the Rnf complex from Acetobacterium woodii (natural protein)
chain: MLNAILVPVGILGVFGLIFGIGLAIAAKVFEVYEDPRVPLVRAALPGANCGGCGLPGCDALAANIVGGSAAIDACPVGGASCAAAVAEIMGMEAGSAVKKVATVICQGTCETAPNRAEYYGEMDCREAMIASGGSKGCRYGCLGYGTCKAVCPFDAIVIGEDGLPKVDPEKCTSCGKCVEACPKSIMTLVPEAQEVIVKCHNFDKGKIARLSCTTACIACGACVKACRFDAITVENNCAKIDYDKCRQCYECVDKCPMNCISGDVEYGKSTAYIIEENCIACGLCAKNCPVNAITGEIKKPPYVIDHDMCIGCGICFDKCRKSAIEMRPNKTK
notes: RnfB, membrane-anchored poly-ferredoxin subunit of the Rnf complex with eight [4Fe4S] clusters, Acetobacterium woodii; rnf genes amplified from genomic DNA; B8-domain is residues 30-100 of RnfB; also called poly-ferredoxin subunit RnfB

Experiments:
[1] = biological target: T1, Rnf complex (NADH / FMN site in RnfC) (Acetobacterium woodii, UniProt H6LC32); details: 30 µM ferredoxin pre-reduced by CO and CODH/ACS; 20 mM Tris/HCl, 20 mM NaCl, pH 7.2, 30 °C
[2] = biological target: Rnf complex (riboflavin and FMN^D sites in RnfD) (Acetobacterium woodii, UniProt H6LC31)
[3] = biological target: Rnf complex (FMN^G site in RnfG) (Acetobacterium woodii, UniProt H6LC30); details: covalent, linked to T185 of RnfG; 5 µM FMN in purification buffer
[4] = biological target: T1, Rnf complex (NADH / FMN site in RnfC); experiment: cryo-EM structure, […] Å; assay type: binding; design: whole six-subunit complex, His-tag at C-terminus of RnfG, plasmid-produced in A. woodii delta-rnf, DDM-solubilised, Ni-NTA and gel filtration, anoxic; with Na(+)-translocating ferredoxin:NAD(+) oxidoreductase complex subunit B; Na(+)-translocating ferredoxin:NAD(+) oxidoreductase complex subunit D; Na(+)-translocating ferredoxin:NAD(+) oxidoreductase complex subunit G; Na(+)-translocating ferredoxin:NAD(+) oxidoreductase complex subunit E; Na(+)-translocating ferredoxin:NAD(+) oxidoreductase complex subunit A; details: 500 µM NADH, 10 min, anoxic; stacks on non-covalent FMN of RnfC
[5] = biological target: B4; experiment: cryo-EM structure; Rnf complex purified in DDM, grids prepared under strictly anoxic conditions; NADH-reduced (3.3 Å), Fd-reduced (2.8 Å; state with B8 closer to the membrane 2.9 Å) and apo (3.0 Å) states, all with the same overall organisation; details: both partners purified
[6] = biological target: B3; experiment: as above; details: both partners purified
[7] = biological target: T2, RnfC subunit of the Rnf complex from Acetobacterium woodii (Acetobacterium woodii, UniProt H6LC32 1-443); experiment: as above; details: both partners purified
T2 construct: rnf genes amplified from genomic DNA
T2 sequence: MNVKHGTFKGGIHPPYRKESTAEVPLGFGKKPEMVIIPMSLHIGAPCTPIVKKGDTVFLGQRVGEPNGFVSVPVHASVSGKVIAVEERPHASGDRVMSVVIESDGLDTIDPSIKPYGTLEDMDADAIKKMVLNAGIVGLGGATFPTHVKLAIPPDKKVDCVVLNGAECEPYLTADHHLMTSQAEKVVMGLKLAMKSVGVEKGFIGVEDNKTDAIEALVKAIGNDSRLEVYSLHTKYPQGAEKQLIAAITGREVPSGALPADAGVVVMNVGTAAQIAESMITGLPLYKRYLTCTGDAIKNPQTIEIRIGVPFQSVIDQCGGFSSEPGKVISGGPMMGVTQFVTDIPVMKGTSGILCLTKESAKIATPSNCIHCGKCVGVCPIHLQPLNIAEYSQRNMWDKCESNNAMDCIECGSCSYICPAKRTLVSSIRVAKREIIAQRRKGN

[8] = biological target: B5; experiment: as above; details: both partners purified
[9] = biological target: B2; experiment: as above; details: both partners purified

`NC(=O)c1ccc[n+]([C@@H]2O[C@H](COP(=O)(O)OP(=O)(O)OC[C@H]3O[C@@H](n4cnc5c(N)ncnc54)[C@H](O)[C@@H]3O)[C@@H](O)[C@H]2O)c1` [NAD^+] was tested. Which “ferredoxin:NAD oxidoreductase assay” value [1] did it give?
Its value is “catalysed the ferredoxin-dependent reduction of NAD^+”.

How did the “cryo-EM structure, 2.8-3.3 Å” value ([2]; covalent, linked to T156 of RnfD, 5 µM FMN in purification buffer) turn out when `Cc1cc2nc3c(=O)[nH]c(=O)nc-3n(C[C@H](O)[C@H](O)[C@H](O)COP(=O)(O)O)c2cc1C` [flavin mononucleotide] was run?
The value was “RnfD contains an FMN^D cofactor covalently linked to T156^RnfD”.

What about the “cryo-EM structure, 2.8-3.3 Å” value [3] of the same molecule?
The value was “covalently binds FMN^G via T185^RnfG in its antiparallel βαβ-fold”.

With `Cc1cc2nc3c(=O)[nH]c(=O)nc-3n(C[C@H](O)[C@H](O)[C@H](O)CO)c2cc1C` [riboflavin] as the molecule, how does the “cryo-EM structure, 2.8-3.3 Å” value ([2]; pocket of RnfD connected to cytoplasmic side, hydrogen bonds to D249 and N123 of RnfD) read?
The value was “RnfD binds the redox cofactor riboflavin (RBF)”.

With `NC(=O)C1=CN([C@@H]2O[C@H](COP(=O)(O)OP(=O)(O)OC[C@H]3O[C@@H](n4cnc5c(N)ncnc54)[C@H](O)[C@@H]3O)[C@@H](O)[C@H]2O)C=CC1` [NADH] as the molecule, how does the “cryo-EM structure, 3.3 Å” value [4] read?
The value was “we observed a well-resolved density for a bound NADH molecule”.

B1: RnfA subunit of the Rnf complex from Acetobacterium woodii (natural protein)
chain: MTLIFIMISAIFVNNFVLSRFLGICPFLGVSKQVETAVGMGVAVTFVMALASAITYVVQYAILDPLSLGYLQTIAFILIIAALVQLVEMIIKKSSPSLYQALGVYLPLITTNCAVLGVALINIQNEYNFIETIFNGVGAALGFTLAIVLFAGIRERLETSAVPKALEGFPIALLTAGLMAIAFLGFSGMKL
notes: RnfA, integral membrane subunit of the Na+-pumping Rnf complex, Acetobacterium woodii; rnf genes amplified from genomic DNA
What does the source list for B1?
binding result [5]: binds; binding result [6]: binds

Does B2 bind [7]?
Result: binds

Does B3 bind [8]?
Result: binds

Does B3 bind [9]?
Result: binds

Does B4 bind [6]?
Result: binds

Does B5 bind [7]?
Result: binds
